# Data: article PMC7746762
# Biological target: FliC-NikRC flagellin variant (flagellin with its D3 domain replaced by the C-terminal Ni-binding domain of NikR) (S. typhimurium | E. coli) (UniProt P0A6Z6)
# Assay: dynamic light scattering; purified FliC-NikRC in solution; conditions not shown (Fig. S1 in the SI)
substance,measurement,value
FliC-NikRC flagellin variant (flagellin with its D3 domain replaced by the C-terminal Ni-binding domain of NikR) (from UniProt P0A6Z6 50-133),stoichiometry N,4
